Source: paper PMC10942602

What was measured:
GFP-Nrxn3α(25b+) (rat) [1] = assay: immunostaining of cells or tissue; co-culture (2 days) of HEK293 cells secreting myc-tagged C1ql2 or C1ql2.K262E with primary hippocampal neurons transfected with GFP-Nrxn3α(25b+); fixed, stained for myc and GFP; area of the masked HEK293 cell covered by GFP-Nrxn3α(25b+)-positive neuronal profiles; 25 cells per condition and experiment, N=3
GFP-Nrxn3α(25b+) (rat) [2] = target: GFP-Nrxn3α(25b+) (rat)

Chain of 6xHis-myc-tagged C1ql2 (Q8CFR0 22-287): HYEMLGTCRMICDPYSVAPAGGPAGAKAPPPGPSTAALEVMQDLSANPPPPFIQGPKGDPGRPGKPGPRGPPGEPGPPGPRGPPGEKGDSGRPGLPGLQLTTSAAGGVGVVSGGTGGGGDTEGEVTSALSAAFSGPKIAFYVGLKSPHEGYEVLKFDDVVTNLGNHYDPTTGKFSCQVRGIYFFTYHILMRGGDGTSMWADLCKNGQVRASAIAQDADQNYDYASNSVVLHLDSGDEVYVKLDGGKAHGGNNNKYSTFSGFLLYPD
Chain of GFP-Nrxn3α(25b+) (rat) (Q07310 28-1578): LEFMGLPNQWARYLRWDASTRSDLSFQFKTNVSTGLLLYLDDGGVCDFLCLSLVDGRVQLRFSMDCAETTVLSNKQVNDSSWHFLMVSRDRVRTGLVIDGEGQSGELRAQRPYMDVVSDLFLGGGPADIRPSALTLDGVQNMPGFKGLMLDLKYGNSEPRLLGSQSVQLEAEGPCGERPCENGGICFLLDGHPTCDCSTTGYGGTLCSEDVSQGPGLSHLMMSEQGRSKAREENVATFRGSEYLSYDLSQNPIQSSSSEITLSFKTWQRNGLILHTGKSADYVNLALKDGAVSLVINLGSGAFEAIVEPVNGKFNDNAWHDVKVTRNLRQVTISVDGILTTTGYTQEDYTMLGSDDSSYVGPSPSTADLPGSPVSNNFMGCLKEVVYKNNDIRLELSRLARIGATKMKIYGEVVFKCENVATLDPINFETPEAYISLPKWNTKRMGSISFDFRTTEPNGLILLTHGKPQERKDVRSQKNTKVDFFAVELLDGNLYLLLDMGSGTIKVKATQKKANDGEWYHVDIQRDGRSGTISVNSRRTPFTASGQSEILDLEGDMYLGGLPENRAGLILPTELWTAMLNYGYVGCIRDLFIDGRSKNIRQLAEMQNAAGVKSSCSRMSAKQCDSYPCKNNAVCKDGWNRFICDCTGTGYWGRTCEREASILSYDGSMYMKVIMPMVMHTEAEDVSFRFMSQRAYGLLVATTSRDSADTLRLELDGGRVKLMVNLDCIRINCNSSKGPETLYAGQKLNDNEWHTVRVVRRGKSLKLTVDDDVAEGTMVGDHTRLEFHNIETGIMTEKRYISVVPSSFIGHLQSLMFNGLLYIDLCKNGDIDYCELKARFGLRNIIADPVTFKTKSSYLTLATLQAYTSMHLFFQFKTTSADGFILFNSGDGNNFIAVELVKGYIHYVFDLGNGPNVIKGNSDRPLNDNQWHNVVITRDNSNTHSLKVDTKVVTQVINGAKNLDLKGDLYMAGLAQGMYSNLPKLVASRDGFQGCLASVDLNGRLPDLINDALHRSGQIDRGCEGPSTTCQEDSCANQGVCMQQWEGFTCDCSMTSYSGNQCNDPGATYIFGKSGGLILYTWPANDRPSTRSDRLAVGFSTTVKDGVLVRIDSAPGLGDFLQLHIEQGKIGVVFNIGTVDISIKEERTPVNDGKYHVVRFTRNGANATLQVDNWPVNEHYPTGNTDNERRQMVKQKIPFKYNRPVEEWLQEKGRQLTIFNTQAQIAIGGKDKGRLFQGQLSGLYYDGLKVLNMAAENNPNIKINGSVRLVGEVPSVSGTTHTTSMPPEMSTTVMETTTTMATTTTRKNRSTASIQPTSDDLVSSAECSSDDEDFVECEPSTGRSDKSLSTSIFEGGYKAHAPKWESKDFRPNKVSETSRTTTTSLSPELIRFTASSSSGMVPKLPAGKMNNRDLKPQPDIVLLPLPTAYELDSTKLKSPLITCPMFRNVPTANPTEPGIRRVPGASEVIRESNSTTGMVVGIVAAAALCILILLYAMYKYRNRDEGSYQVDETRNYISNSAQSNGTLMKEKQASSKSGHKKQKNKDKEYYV

Substance | surface area of HEK293 cells covered by GFP-Nrxn3α(25b+)-positive neuronal profiles (GFP-Nrxn3α(25b+) (rat) [1]) | vGlut1 accumulation in GFP-Nrxn3α(25b+)-expressing neurons contacting HEK293 cells expressing C1ql2.K262E (area of the HEK293 cell covered by vGlut1) (GFP-Nrxn3α(25b+) (rat) [2])
6xHis-myc-tagged C1ql2 (from UniProt Q8CFR0 22-287) (natural protein) | 40 | –
6xHis-myc-tagged C1ql2.K262E (from UniProt Q8CFR0 22-287) (natural protein) | – | 16.9
